Where a chain is given by its changes, count along the chain named.
Experiments:
NE2 mutant 601LE = target: T1, NE2 mutant 601LE (hepatitis E virus, UniProt P29326 394-600); assay: WB
T1 construct: position counted on HEV ORF2
T1 chain: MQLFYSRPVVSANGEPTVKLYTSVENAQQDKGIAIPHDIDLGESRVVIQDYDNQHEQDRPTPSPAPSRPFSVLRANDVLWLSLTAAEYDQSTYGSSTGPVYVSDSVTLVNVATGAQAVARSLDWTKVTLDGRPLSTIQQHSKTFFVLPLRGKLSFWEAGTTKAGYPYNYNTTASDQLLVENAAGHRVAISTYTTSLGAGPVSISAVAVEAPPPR

polypeptide 239 = target: T2, polypeptide 239 (hepatitis E virus, UniProt P29326 368-603); assay: Western blot
T2 sequence: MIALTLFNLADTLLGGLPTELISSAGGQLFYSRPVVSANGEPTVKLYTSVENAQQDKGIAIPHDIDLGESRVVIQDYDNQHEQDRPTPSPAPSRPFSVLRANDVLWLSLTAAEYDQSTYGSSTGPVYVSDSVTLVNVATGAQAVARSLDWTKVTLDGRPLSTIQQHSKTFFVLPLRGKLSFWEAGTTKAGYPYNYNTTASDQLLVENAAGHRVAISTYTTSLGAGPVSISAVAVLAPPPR

NE2 mutant 601LH = target: T3, NE2 mutant 601LH (hepatitis E virus, UniProt P29326 394-600); assay: Western blot of NE2 mutant proteins with monoclonal antibody 16D7
T3 construct: position counted on HEV ORF2
T3 chain: T1 chain with E209H

NE2 mutant 599AE = target: T4, NE2 mutant 599AE (hepatitis E virus, UniProt P29326 394-603); assay: as above
T4 construct: position counted on HEV ORF2
T4 chain: T1 chain with A207E, E209L

NE2 mutant 597AE = target: T5, NE2 mutant 597AE (hepatitis E virus, UniProt P29326 394-603); assay: as above
T5 construct: position counted on HEV ORF2
T5 chain: T1 chain with A205E, E209L

NE2 mutant 602AE = target: T6, NE2 mutant 602AE (hepatitis E virus, UniProt P29326 394-601); assay: as above
T6 construct: position counted on HEV ORF2
T6 chain: T1 chain with E209L, A210E

NE2 mutant 598VE = target: T7, NE2 mutant 598VE (hepatitis E virus, UniProt P29326 394-603); assay: as above
T7 construct: position counted on HEV ORF2
T7 chain: T1 chain with V206E, E209L

NE2 mutant 600VE = target: T8, NE2 mutant 600VE (hepatitis E virus, UniProt P29326 394-599); assay: as above
T8 construct: position counted on HEV ORF2
T8 chain: T1 chain with V208E, E209L

NE2 mutant 601LK = target: T9, NE2 mutant 601LK (hepatitis E virus, UniProt P29326 394-600); assay: as above
T9 construct: position counted on HEV ORF2
T9 chain: T1 chain with E209K

NE2 mutant 601LD = target: T10, NE2 mutant 601LD (hepatitis E virus, UniProt P29326 394-600); assay: as above
T10 construct: position counted on HEV ORF2
T10 chain: T1 chain with E209D

Measured: binding result

B1: monoclonal antibody 16D7 (antibody, V domains shown)
VH: EVQLQQSGPELVKPGASVKMSCKASGYKFTSYVMHWVKQKPGQGLEWIGYINPSNDNIKYNEKFKGKAILTLDKSSSTAYMAFSSLTSEDSAVYYCATLTGVDYWGQGTTLTVSS
VL: DVVMTQTPLSLSVTIGQPASISCKSSQSLLYRNGKIYLNWLQQRPGQAPKHLMSQVSKLDPGIPDRFSGSGSETDFTLKISRVEAEDLGVYYCLQGTHYPYTFGGGTKLEIKR
notes: also called MAb 16D7; HRP-16D7
binds: all assays above

Reference: patent US20060233822A1 (YANG SHENG TANG, published 2006)
